Assay results: patent US20210154269A1

How the values were obtained:
human CD47 (human) [1] = target: human CD47 (human) (UniProt Q08722); experiment: affinity for human CD47; method not stated
human CD47 (human) [2] = target: human CD47 (human) (UniProt Q08722); experiment: in vitro receptor occupancy assay, at ~1 µM
human CD47 (human) [3] = target: human CD47 (human) (UniProt Q08722); experiment: cell-based or functional assay

Kd (human CD47 (human) [1])	receptor occupancy (human CD47 (human) [2])	EC50, PathHunter SIRPα Signaling Bioassay (human CD47 (human) [3])	inhibition of SIRPα signaling at 1 nM (human CD47 (human) [3])	Substance
0.5 µM	40%	> 0.15 µg/mL	< 10%	TTI-622 (from UniProt P78324 31-149) (Fc fusion)
0.5 µM	40%	> 0.15 µg/mL	< 10%	TTI-621 (from UniProt P78324 31-149) (Fc fusion)
